Measurements: the supplement of paper PMC9112550, “Optimization of the antimicrobial peptide Bac7 by deep mutational scanning” (BMC Biology, 2022)

System: Escherichia coli TOP10
Experiment: shrunken log2 fold change of peptide-encoding DNA abundance (4.5 h post-induction vs induction); higher = less antimicrobial activity (less host growth inhibition)
Conditions: time post-induction: 4.5 h; library: site-saturation at positions 5, 18, 19, 20
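Note: peptides expressed intracellularly from a pBAD plasmid library in pooled LB shake-flask culture, induced with 0.3% L-arabinose, DNA abundance read by NGS, three biological replicates, DESeq2 with apeglm shrinkage.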

Sequence	shrunken log2 fold change
RRIRQRPPRLPRPRPRPMDWPRP	0.0912
RRIRQRPPRLPRPRPRPMESPRP	-0.0548
RRIRQRPPRLPRPRPRPMFFPRP	-0.0364
RRIRQRPPRLPRPRPRPMFGPRP	0.0107
RRIRQRPPRLPRPRPRPMFMPRP	-0.0688
RRIRQRPPRLPRPRPRPMFNPRP	-0.436
RRIRQRPPRLPRPRPRPMHPPRP	0.203
RRIRQRPPRLPRPRPRPMHTPRP	-0.026
RRIRQRPPRLPRPRPRPMHYPRP	-0.276
RRIRQRPPRLPRPRPRPMKTPRP	0.0802
RRIRQRPPRLPRPRPRPMLVPRP	0.142
RRIRQRPPRLPRPRPRPMMDPRP	-0.137
RRIRQRPPRLPRPRPRPMMQPRP	-0.313
RRIRQRPPRLPRPRPRPMMTPRP	0.0172
RRIRQRPPRLPRPRPRPMQYPRP	-0.309
RRIRQRPPRLPRPRPRPMRAPRP	0.235
RRIRQRPPRLPRPRPRPMSPPRP	-0.11
RRIRQRPPRLPRPRPRPMVNPRP	-0.2
RRIRQRPPRLPRPRPRPMYGPRP	-0.0233
RRIRQRPPRLPRPRPRPNCWPRP	0.0822
RRIRQRPPRLPRPRPRPNDIPRP	-0.348
RRIRQRPPRLPRPRPRPNEAPRP	-0.0868
RRIRQRPPRLPRPRPRPNETPRP	-0.0269
RRIRQRPPRLPRPRPRPNGAPRP	0.451
RRIRQRPPRLPRPRPRPNINPRP	-0.633

Sequence	shrunken log2 fold change
RRIRQRPPRLPRPRPRPNLTPRP	-0.432
RRIRQRPPRLPRPRPRPNNHPRP	-0.71
RRIRQRPPRLPRPRPRPNPMPRP	-0.00515
RRIRQRPPRLPRPRPRPNQCPRP	0.0304
RRIRQRPPRLPRPRPRPNQIPRP	-0.371
RRIRQRPPRLPRPRPRPNTAPRP	-0.0235
RRIRQRPPRLPRPRPRPNVCPRP	-0.575
RRIRQRPPRLPRPRPRPNVEPRP	-0.0222
RRIRQRPPRLPRPRPRPNYKPRP	-0.545
RRIRQRPPRLPRPRPRPPCPPRP	0.085
RRIRQRPPRLPRPRPRPPEAPRP	0.243
RRIRQRPPRLPRPRPRPPEFPRP	0.0335
RRIRQRPPRLPRPRPRPPEHPRP	0.0412
RRIRQRPPRLPRPRPRPPEWPRP	-0.0462
RRIRQRPPRLPRPRPRPPFQPRP	0.0422
RRIRQRPPRLPRPRPRPPFVPRP	0.0462
RRIRQRPPRLPRPRPRPPGNPRP	0.246
RRIRQRPPRLPRPRPRPPHFPRP	0.00908
RRIRQRPPRLPRPRPRPPHVPRP	0.15
RRIRQRPPRLPRPRPRPPINPRP	-0.00134
RRIRQRPPRLPRPRPRPPIVPRP	-0.015
RRIRQRPPRLPRPRPRPPLDPRP	0.685
RRIRQRPPRLPRPRPRPPMDPRP	-0.0321
RRIRQRPPRLPRPRPRPPPHPRP	0.737
RRIRQRPPRLPRPRPRPPQIPRP	0.238

Sequence	shrunken log2 fold change
RRIRQRPPRLPRPRPRPPRCPRP	0.689
RRIRQRPPRLPRPRPRPPRRPRP	0.852
RRIRQRPPRLPRPRPRPPSYPRP	-0.0228
RRIRQRPPRLPRPRPRPPTDPRP	0.0902
RRIRQRPPRLPRPRPRPPTLPRP	-4.2e-05
RRIRQRPPRLPRPRPRPPWGPRP	0.242
RRIRQRPPRLPRPRPRPPWPPRP	0.429
RRIRQRPPRLPRPRPRPPYFPRP	0.245
RRIRQRPPRLPRPRPRPPYGPRP	-0.408
RRIRQRPPRLPRPRPRPPYQPRP	-0.216
RRIRQRPPRLPRPRPRPQANPRP	-0.165
RRIRQRPPRLPRPRPRPQATPRP	-0.00963
RRIRQRPPRLPRPRPRPQAYPRP	-0.0257
RRIRQRPPRLPRPRPRPQCDPRP	-0.146
RRIRQRPPRLPRPRPRPQCYPRP	-0.168
RRIRQRPPRLPRPRPRPQEKPRP	0.0313
RRIRQRPPRLPRPRPRPQFKPRP	-0.0321
RRIRQRPPRLPRPRPRPQFMPRP	-0.302
RRIRQRPPRLPRPRPRPQFPPRP	-0.202
RRIRQRPPRLPRPRPRPQGCPRP	-0.0562
RRIRQRPPRLPRPRPRPQKIPRP	-0.29
RRIRQRPPRLPRPRPRPQMPPRP	-1.26
RRIRQRPPRLPRPRPRPQNQPRP	-0.17
RRIRQRPPRLPRPRPRPQNRPRP	-0.0176
RRIRQRPPRLPRPRPRPQNTPRP	-0.666

Sequence	shrunken log2 fold change
RRIRQRPPRLPRPRPRPQPLPRP	-0.0826
RRIRQRPPRLPRPRPRPQPPPRP	0.194
RRIRQRPPRLPRPRPRPQQRPRP	0.0983
RRIRQRPPRLPRPRPRPQRCPRP	0.0862
RRIRQRPPRLPRPRPRPQRLPRP	-0.0136
RRIRQRPPRLPRPRPRPQRQPRP	0.0235
RRIRQRPPRLPRPRPRPQSHPRP	-0.309
RRIRQRPPRLPRPRPRPQWNPRP	-0.206
RRIRQRPPRLPRPRPRPQYHPRP	-0.609
RRIRQRPPRLPRPRPRPQYIPRP	-0.0838
RRIRQRPPRLPRPRPRPQYSPRP	0.124
RRIRQRPPRLPRPRPRPQYWPRP	-0.0582
RRIRQRPPRLPRPRPRPRCHPRP	0.118
RRIRQRPPRLPRPRPRPRDDPRP	0.538
RRIRQRPPRLPRPRPRPRDIPRP	0.0657
RRIRQRPPRLPRPRPRPRFEPRP	0.0165
RRIRQRPPRLPRPRPRPRFLPRP	-0.0439
RRIRQRPPRLPRPRPRPRGMPRP	0.143
RRIRQRPPRLPRPRPRPRHPPRP	0.283
RRIRQRPPRLPRPRPRPRHTPRP	-0.147
RRIRQRPPRLPRPRPRPRLRPRP	0.44
RRIRQRPPRLPRPRPRPRMEPRP	-0.194
RRIRQRPPRLPRPRPRPRNEPRP	-0.199
RRIRQRPPRLPRPRPRPRPKPRP	0.936
RRIRQRPPRLPRPRPRPRPWPRP	0.858

Sequence	shrunken log2 fold change
RRIRQRPPRLPRPRPRPRQTPRP	0.161
RRIRQRPPRLPRPRPRPRQVPRP	0.302
RRIRQRPPRLPRPRPRPRRWPRP	0.326
RRIRQRPPRLPRPRPRPRSGPRP	0.162
RRIRQRPPRLPRPRPRPRSLPRP	-0.0177
RRIRQRPPRLPRPRPRPRSYPRP	-0.286
RRIRQRPPRLPRPRPRPRTHPRP	0.167
RRIRQRPPRLPRPRPRPRVMPRP	-0.139
RRIRQRPPRLPRPRPRPRVRPRP	0.329
RRIRQRPPRLPRPRPRPRVTPRP	0.238
RRIRQRPPRLPRPRPRPRVWPRP	0.163
RRIRQRPPRLPRPRPRPRVYPRP	0.0498
RRIRQRPPRLPRPRPRPSAWPRP	0.19
RRIRQRPPRLPRPRPRPSDWPRP	-0.131
RRIRQRPPRLPRPRPRPSEPPRP	0.0286
RRIRQRPPRLPRPRPRPSICPRP	-0.443
RRIRQRPPRLPRPRPRPSIFPRP	-0.635
RRIRQRPPRLPRPRPRPSIIPRP	-0.63
RRIRQRPPRLPRPRPRPSLTPRP	0.133
RRIRQRPPRLPRPRPRPSMKPRP	-0.166
RRIRQRPPRLPRPRPRPSQPPRP	-0.267
RRIRQRPPRLPRPRPRPSRAPRP	0.19
RRIRQRPPRLPRPRPRPSRDPRP	-0.141
RRIRQRPPRLPRPRPRPSRNPRP	-0.0593
RRIRQRPPRLPRPRPRPSRSPRP	-0.117

Sequence	shrunken log2 fold change
RRIRQRPPRLPRPRPRPSRWPRP	-0.0126
RRIRQRPPRLPRPRPRPSSLPRP	-0.728
RRIRQRPPRLPRPRPRPSSQPRP	-0.395
RRIRQRPPRLPRPRPRPSTDPRP	-0.468
RRIRQRPPRLPRPRPRPSVVPRP	0.082
RRIRQRPPRLPRPRPRPSWQPRP	-0.0449
RRIRQRPPRLPRPRPRPSYTPRP	-1.34
RRIRQRPPRLPRPRPRPTATPRP	0.0728
RRIRQRPPRLPRPRPRPTCDPRP	-0.116
RRIRQRPPRLPRPRPRPTDEPRP	-0.131
RRIRQRPPRLPRPRPRPTDIPRP	-0.0659
RRIRQRPPRLPRPRPRPTEVPRP	-0.018
RRIRQRPPRLPRPRPRPTFRPRP	-0.232
RRIRQRPPRLPRPRPRPTFVPRP	-0.692
RRIRQRPPRLPRPRPRPTGGPRP	0.0146
RRIRQRPPRLPRPRPRPTGHPRP	0.00113
RRIRQRPPRLPRPRPRPTGLPRP	0.0999
RRIRQRPPRLPRPRPRPTGWPRP	0.19
RRIRQRPPRLPRPRPRPTHEPRP	0.881
RRIRQRPPRLPRPRPRPTIKPRP	-0.374
RRIRQRPPRLPRPRPRPTMYPRP	-0.352
RRIRQRPPRLPRPRPRPTNHPRP	-0.552
RRIRQRPPRLPRPRPRPTNLPRP	-0.0248
RRIRQRPPRLPRPRPRPTRTPRP	1.65
RRIRQRPPRLPRPRPRPTSSPRP	0.088
